Experimental findings from paper PMC7089075 are described below.

Assay [1] addresses N (two-hybrid positive control, pAS2 N and pGADT7 N). Description: two-hybrid.
Assay [2] concerns the target Salmo salar Mov10 (SsMov10) (Salmo salar). Description: two-hybrid.

Consider “N (two-hybrid positive control, pAS2 N and pGADT7 N) (natural protein)”, for which the liquid beta gal assay value in assay [1] stood at 1.28. In assay [2], “infectious salmon anaemia virus (ISAV) segment 8 open reading frame 2 protein (s8ORF2) (natural protein)” displayed a fold β-galactosidase activity against the controls of 5 fold.
